One series concerns the target TRF2 (UniProt Q15554). Nature of the series: AFM imaging. The note with it: N = 126; same conditions as T270; EMSA: 5 nM DNA, 100 nM TRF2, agarose gel; buffer, salt, pH and temperature not given in the material; AFM compaction comparison of TRF2ΔB at 300 nM protein. In general terms: In EMSA bound probe runs differently from free probe, usually more slowly.
In series [1] the target is T1, TRF2 (full length, recombinant His6-tagged) (human), Q15554.
T1 chain: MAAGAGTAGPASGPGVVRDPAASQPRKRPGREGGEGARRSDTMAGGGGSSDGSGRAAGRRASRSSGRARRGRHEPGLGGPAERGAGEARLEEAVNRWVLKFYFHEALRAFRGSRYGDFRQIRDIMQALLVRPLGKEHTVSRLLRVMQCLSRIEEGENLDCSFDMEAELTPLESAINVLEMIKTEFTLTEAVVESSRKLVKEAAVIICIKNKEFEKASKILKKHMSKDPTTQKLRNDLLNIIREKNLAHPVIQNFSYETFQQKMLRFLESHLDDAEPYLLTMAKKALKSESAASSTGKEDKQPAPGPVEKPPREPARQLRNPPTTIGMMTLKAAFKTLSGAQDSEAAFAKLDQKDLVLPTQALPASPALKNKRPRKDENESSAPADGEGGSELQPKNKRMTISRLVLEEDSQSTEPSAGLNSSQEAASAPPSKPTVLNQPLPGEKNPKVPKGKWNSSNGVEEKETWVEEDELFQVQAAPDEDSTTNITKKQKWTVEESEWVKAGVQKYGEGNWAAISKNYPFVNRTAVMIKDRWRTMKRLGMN
Nature of the series: AFM volume analysis; TRF2 (400 nM, mixed with an equal volume of DNA) incubated with linear T270 DNA (270 TTAGGG repeats) for 30 min in 50 mM HEPES, 150 mM KCl, pH 7.5, diluted 10 fold and deposited on mica; volumes of small DNA-bound complexes (< 500 nm^3). The note with it: remark: other sources report otherwise.

Series [2] has as its target T1, TRF2 (full length, recombinant …). Nature of the series: AFM volume analysis; TRF2 protein alone deposited on mica; AFM volume converted to oligomeric state by a calibration curve of volume against molecular weight; monomer to dimer. To be noted: remark: other sources report otherwise.

“And” between values parts separate entries of the source, which are not always exact repeats. Equal values may be shown once. Some results are limits rather than exact numbers.

The stoichiometry N is the number of molecules, sites or subunits per partner or assembly.

As for DNA with no telomeric sequences, the binding signal (% DNA with large complexes) with TRF2 is < 8.

B1: TRF2 (full length, recombinant His6-tagged), Q15554 1-542 (natural protein)
chain: MAAGAGTAGPASGPGVVRDPAASQPRKRPGREGGEGARRSDTMAGGGGSSDGSGRAAGRRASRSSGRARRGRHEPGLGGPAERGAGEARLEEAVNRWVLKFYFHEALRAFRGSRYGDFRQIRDIMQALLVRPLGKEHTVSRLLRVMQCLSRIEEGENLDCSFDMEAELTPLESAINVLEMIKTEFTLTEAVVESSRKLVKEAAVIICIKNKEFEKASKILKKHMSKDPTTQKLRNDLLNIIREKNLAHPVIQNFSYETFQQKMLRFLESHLDDAEPYLLTMAKKALKSESAASSTGKEDKQPAPGPVEKPPREPARQLRNPPTTIGMMTLKAAFKTLSGAQDSEAAFAKLDQKDLVLPTQALPASPALKNKRPRKDENESSAPADGEGGSELQPKNKRMTISRLVLEEDSQSTEPSAGLNSSQEAASAPPSKPTVLNQPLPGEKNPKVPKGKWNSSNGVEEKETWVEEDELFQVQAAPDEDSTTNITKKQKWTVEESEWVKAGVQKYGEGNWAAISKNYPFVNRTAVMIKDRWRTMKRLGMN
For B1, the stoichiometry N in series [1] was 2 and 4; in series [2], 2.
